Measured values taken from PMC4434323.

Tests used:
[1] = target: T1, die-1 (C18D1.1) (Caenorhabditis elegans) (UniProt A0A131MCR4)
T1 sequence: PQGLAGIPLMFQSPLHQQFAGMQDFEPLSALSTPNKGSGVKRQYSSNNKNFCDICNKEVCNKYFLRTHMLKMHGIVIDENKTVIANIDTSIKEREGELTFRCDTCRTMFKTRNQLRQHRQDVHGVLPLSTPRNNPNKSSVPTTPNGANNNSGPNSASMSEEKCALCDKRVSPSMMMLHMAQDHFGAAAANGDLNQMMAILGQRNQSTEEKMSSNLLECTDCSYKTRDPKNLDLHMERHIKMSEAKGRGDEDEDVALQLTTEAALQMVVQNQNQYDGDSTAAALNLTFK

[2] = target: T2, ztf-19 (T27B1.2) (Caenorhabditis elegans) (UniProt Q22829)
T2 sequence: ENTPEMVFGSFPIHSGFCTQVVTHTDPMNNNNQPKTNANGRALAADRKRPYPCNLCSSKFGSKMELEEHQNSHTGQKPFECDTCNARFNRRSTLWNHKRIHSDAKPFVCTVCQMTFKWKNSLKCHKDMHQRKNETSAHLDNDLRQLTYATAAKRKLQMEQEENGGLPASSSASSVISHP

[3] = target: egrh-1 (C27C12.2) (Caenorhabditis elegans) (UniProt Q18250)
[4] = target: ZC328.2 (ZC328.2) (Caenorhabditis elegans) (UniProt O02050)
[5] = target: T3, ZK337.2 (ZK337.2) (Caenorhabditis elegans) (UniProt O46016)
T3 sequence: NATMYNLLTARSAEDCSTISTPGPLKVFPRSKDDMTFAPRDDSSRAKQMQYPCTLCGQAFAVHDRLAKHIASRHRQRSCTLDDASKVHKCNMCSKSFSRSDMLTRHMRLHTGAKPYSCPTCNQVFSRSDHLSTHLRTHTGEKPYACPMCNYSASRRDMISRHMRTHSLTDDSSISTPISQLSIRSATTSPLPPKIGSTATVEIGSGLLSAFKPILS

[6] = target: T4, zip-3 (W07G1.3) (Caenorhabditis elegans) (UniProt Q9XUK2)
T4 sequence: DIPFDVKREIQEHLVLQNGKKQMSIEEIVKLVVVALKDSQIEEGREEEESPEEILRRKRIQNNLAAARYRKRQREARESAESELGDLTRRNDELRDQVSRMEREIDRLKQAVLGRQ

[7] = target: T5, atf-5 (T04C10.4) (Caenorhabditis elegans) (UniProt Q22156)
T5 sequence: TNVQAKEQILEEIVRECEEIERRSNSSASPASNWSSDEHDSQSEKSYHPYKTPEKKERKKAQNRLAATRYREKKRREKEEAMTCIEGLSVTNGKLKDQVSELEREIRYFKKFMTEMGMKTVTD

[8] = target: atf-7 (C07G2.2) (Caenorhabditis elegans) (UniProt Q86MD3)
[9] = target: T6, ham-2 (C07A12.1) (Caenorhabditis elegans) (UniProt H2KYH4)
T6 sequence: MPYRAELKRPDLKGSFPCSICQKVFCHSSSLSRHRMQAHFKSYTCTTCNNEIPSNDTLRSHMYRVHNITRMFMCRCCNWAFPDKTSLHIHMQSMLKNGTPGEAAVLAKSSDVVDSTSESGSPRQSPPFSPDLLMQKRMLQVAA

[10] = target: T7, B0310.2 (B0310.2) (Caenorhabditis elegans) (UniProt Q10938)
T7 sequence: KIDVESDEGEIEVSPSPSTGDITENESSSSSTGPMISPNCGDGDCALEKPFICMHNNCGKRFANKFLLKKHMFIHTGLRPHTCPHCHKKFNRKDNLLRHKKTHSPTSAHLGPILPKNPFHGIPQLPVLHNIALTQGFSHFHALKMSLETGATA

[11] = target: T8, ztf-29 (Y66D12A.12) (Caenorhabditis elegans) (UniProt Q95Q03)
T8 sequence: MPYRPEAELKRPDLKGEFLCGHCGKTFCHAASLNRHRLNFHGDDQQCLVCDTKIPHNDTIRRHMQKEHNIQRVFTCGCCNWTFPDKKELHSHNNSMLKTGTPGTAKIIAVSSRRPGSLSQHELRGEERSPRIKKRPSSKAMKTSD

[12] = target: T9, skn-1 (T19E7.2) (Caenorhabditis elegans) (UniProt P34707)
T9 sequence: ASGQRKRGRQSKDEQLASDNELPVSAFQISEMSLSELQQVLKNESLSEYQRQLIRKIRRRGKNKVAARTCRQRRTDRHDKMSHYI

egrh-1 (C27C12.2) (Caenorhabditis elegans), sequence (Q18250 324-461): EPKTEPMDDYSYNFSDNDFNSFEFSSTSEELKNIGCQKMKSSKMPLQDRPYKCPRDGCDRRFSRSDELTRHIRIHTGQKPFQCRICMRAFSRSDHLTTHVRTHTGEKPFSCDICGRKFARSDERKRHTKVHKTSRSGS
ZC328.2 (ZC328.2) (Caenorhabditis elegans), sequence (O02050 entry or part of it): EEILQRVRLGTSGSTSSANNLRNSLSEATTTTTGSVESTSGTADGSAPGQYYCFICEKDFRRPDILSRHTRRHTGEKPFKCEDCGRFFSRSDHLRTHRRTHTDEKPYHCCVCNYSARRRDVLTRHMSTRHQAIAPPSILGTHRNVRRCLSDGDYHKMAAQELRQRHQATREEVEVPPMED
atf-7 (C07G2.2) (Caenorhabditis elegans), sequence (Q86MD3 339-508): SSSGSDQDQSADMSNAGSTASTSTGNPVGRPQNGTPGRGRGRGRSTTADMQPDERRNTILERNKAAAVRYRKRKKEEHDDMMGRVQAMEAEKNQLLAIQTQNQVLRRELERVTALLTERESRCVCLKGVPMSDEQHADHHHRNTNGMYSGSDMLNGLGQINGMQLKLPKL

Q: How did the binding signal (PBM E-score (-0.5 to 0.5)) [1] turn out when “GTTTTAAA (double strand) [8-mer GTTTTAAA]” was run?
A: Its binding signal (PBM E-score (-0.5 to 0.5)) is 0.478.

Q: With “GATTTAAA (double strand) [8-mer GATTTAAA]” as the sequence, how does the binding signal (PBM E-score (-0.5 to 0.5)) [1] read?
A: Its binding signal (PBM E-score (-0.5 to 0.5)) is 0.477.

Q: For “AGTTTAAA (double strand) [8-mer AGTTTAAA]”, which binding signal (PBM E-score (-0.5 to 0.5)) [2] is on record?
A: The binding signal (PBM E-score (-0.5 to 0.5)) was 0.495.

Q: And the binding signal (PBM E-score (-0.5 to 0.5)) [1]?
A: Its binding signal (PBM E-score (-0.5 to 0.5)) is 0.49.

Q: How did the binding signal (PBM E-score (-0.5 to 0.5)) [3] turn out when “AGGGGGCG (double strand) [8-mer AGGGGGCG]” was run?
A: The binding signal (PBM E-score (-0.5 to 0.5)) was 0.486.

Q: What does the source list for “CCCCCGCA (double strand) [8-mer CCCCCGCA]”?
A: binding signal (PBM E-score (-0.5 to 0.5)) [4]: 0.497; binding signal (PBM E-score (-0.5 to 0.5)) [3]: 0.495; binding signal (PBM E-score (-0.5 to 0.5)) [5]: 0.494

Q: For “ATGACGTC (double strand) [8-mer ATGACGTC]”, which binding signal (PBM E-score (-0.5 to 0.5)) [6] is on record?
A: Its binding signal (PBM E-score (-0.5 to 0.5)) is 0.493.

Q: And the binding signal (PBM E-score (-0.5 to 0.5)) [7]?
A: Its binding signal (PBM E-score (-0.5 to 0.5)) is 0.468.

Q: What about the binding signal (PBM E-score (-0.5 to 0.5)) [8] of the same sequence?
A: The binding signal (PBM E-score (-0.5 to 0.5)) was 0.497.

Q: For “ATGCTAAT (double strand) [8-mer ATGCTAAT]”, which binding signal (PBM E-score (-0.5 to 0.5)) [9] is on record?
A: The binding signal (PBM E-score (-0.5 to 0.5)) was 0.478.

Q: “CCCACGCA (double strand) [8-mer CCCACGCA]” was tested. Which binding signal (PBM E-score (-0.5 to 0.5)) [4] did it give?
A: Its binding signal (PBM E-score (-0.5 to 0.5)) is 0.497.

Q: And the binding signal (PBM E-score (-0.5 to 0.5)) [3]?
A: The binding signal (PBM E-score (-0.5 to 0.5)) was 0.496.

Q: And the binding signal (PBM E-score (-0.5 to 0.5)) [5]?
A: Its binding signal (PBM E-score (-0.5 to 0.5)) is 0.488.

Q: With “GTGAGGTA (double strand) [8-mer GTGAGGTA]” as the sequence, how does the binding signal (PBM E-score (-0.5 to 0.5)) [10] read?
A: Its binding signal (PBM E-score (-0.5 to 0.5)) is 0.485.

Q: Which binding signal (PBM E-score (-0.5 to 0.5)) [9] does the source give for “AAAGCTTA (double strand) [8-mer AAAGCTTA]” here?
A: Its binding signal (PBM E-score (-0.5 to 0.5)) is 0.481.

Q: What about the binding signal (PBM E-score (-0.5 to 0.5)) [11] of the same sequence?
A: The binding signal (PBM E-score (-0.5 to 0.5)) was 0.485.

Q: How did the binding signal (PBM E-score (-0.5 to 0.5)) [3] turn out when “GCCCCCAC (double strand) [8-mer GCCCCCAC]” was run?
A: The binding signal (PBM E-score (-0.5 to 0.5)) was 0.486.

Q: How did the binding signal (PBM E-score (-0.5 to 0.5)) [3] turn out when “CGCCCACG (double strand) [8-mer CGCCCACG]” was run?
A: Its binding signal (PBM E-score (-0.5 to 0.5)) is 0.495.

Q: What about the binding signal (PBM E-score (-0.5 to 0.5)) [5] of the same sequence?
A: The binding signal (PBM E-score (-0.5 to 0.5)) was 0.492.

Q: Which binding signal (PBM E-score (-0.5 to 0.5)) [9] does the source give for “AAGCTTAC (double strand) [8-mer AAGCTTAC]” here?
A: The binding signal (PBM E-score (-0.5 to 0.5)) was 0.489.

Q: What about the binding signal (PBM E-score (-0.5 to 0.5)) [11] of the same sequence?
A: The binding signal (PBM E-score (-0.5 to 0.5)) was 0.485.

Q: For “AATTTAAA (double strand) [8-mer AATTTAAA]”, which binding signal (PBM E-score (-0.5 to 0.5)) [1] is on record?
A: The binding signal (PBM E-score (-0.5 to 0.5)) was 0.497.

Q: For “ACTTTAAA (double strand) [8-mer ACTTTAAA]”, which binding signal (PBM E-score (-0.5 to 0.5)) [1] is on record?
A: Its binding signal (PBM E-score (-0.5 to 0.5)) is 0.493.

Q: Which binding signal (PBM E-score (-0.5 to 0.5)) [9] does the source give for “TTAGCTAA (double strand) [8-mer TTAGCTAA]” here?
A: Its binding signal (PBM E-score (-0.5 to 0.5)) is 0.483.

Q: “CCCCCACA (double strand) [8-mer CCCCCACA]” was tested. Which binding signal (PBM E-score (-0.5 to 0.5)) [3] did it give?
A: The binding signal (PBM E-score (-0.5 to 0.5)) was 0.489.

Q: “ACCTCAAA (double strand) [8-mer ACCTCAAA]” was tested. Which binding signal (PBM E-score (-0.5 to 0.5)) [10] did it give?
A: The binding signal (PBM E-score (-0.5 to 0.5)) was 0.481.

Q: How did the binding signal (PBM E-score (-0.5 to 0.5)) [10] turn out when “ATACCTCA (double strand) [8-mer ATACCTCA]” was run?
A: The binding signal (PBM E-score (-0.5 to 0.5)) was 0.485.

Q: “TGCTAGCA (double strand) [8-mer TGCTAGCA]” was tested. Which binding signal (PBM E-score (-0.5 to 0.5)) [9] did it give?
A: The binding signal (PBM E-score (-0.5 to 0.5)) was 0.48.

Q: “CGTCATCA (double strand) [8-mer CGTCATCA]” was tested. Which binding signal (PBM E-score (-0.5 to 0.5)) [12] did it give?
A: The binding signal (PBM E-score (-0.5 to 0.5)) was 0.492.

Q: And the binding signal (PBM E-score (-0.5 to 0.5)) [6]?
A: The binding signal (PBM E-score (-0.5 to 0.5)) was 0.489.

Q: “ATTTTAAA (double strand) [8-mer ATTTTAAA]” was tested. Which binding signal (PBM E-score (-0.5 to 0.5)) [1] did it give?
A: Its binding signal (PBM E-score (-0.5 to 0.5)) is 0.496.

Q: How did the binding signal (PBM E-score (-0.5 to 0.5)) [10] turn out when “ATCCCTCA (double strand) [8-mer ATCCCTCA]” was run?
A: The binding signal (PBM E-score (-0.5 to 0.5)) was 0.482.

Q: For “GTGAGGGA (double strand) [8-mer GTGAGGGA]”, which binding signal (PBM E-score (-0.5 to 0.5)) [10] is on record?
A: The binding signal (PBM E-score (-0.5 to 0.5)) was 0.478.

Q: Which results are given for “ACGTCATA (double strand) [8-mer ACGTCATA]”?
A: binding signal (PBM E-score (-0.5 to 0.5)) [6]: 0.493; binding signal (PBM E-score (-0.5 to 0.5)) [7]: 0.464; binding signal (PBM E-score (-0.5 to 0.5)) [8]: 0.497

Q: What does the source list for “AAGCTTAT (double strand) [8-mer AAGCTTAT]”?
A: binding signal (PBM E-score (-0.5 to 0.5)) [9]: 0.487; binding signal (PBM E-score (-0.5 to 0.5)) [11]: 0.488

Q: For “ACCCCCGC (double strand) [8-mer ACCCCCGC]”, which binding signal (PBM E-score (-0.5 to 0.5)) [4] is on record?
A: The binding signal (PBM E-score (-0.5 to 0.5)) was 0.492.

Q: What about the binding signal (PBM E-score (-0.5 to 0.5)) [3] of the same sequence?
A: The binding signal (PBM E-score (-0.5 to 0.5)) was 0.485.

Q: Which results are given for “CCCACGCG (double strand) [8-mer CCCACGCG]”?
A: binding signal (PBM E-score (-0.5 to 0.5)) [4]: 0.49; binding signal (PBM E-score (-0.5 to 0.5)) [3]: 0.486

Q: With “AAGCTAGC (double strand) [8-mer AAGCTAGC]” as the sequence, how does the binding signal (PBM E-score (-0.5 to 0.5)) [9] read?
A: Its binding signal (PBM E-score (-0.5 to 0.5)) is 0.476.

Q: How did the binding signal (PBM E-score (-0.5 to 0.5)) [10] turn out when “TGAGGTAA (double strand) [8-mer TGAGGTAA]” was run?
A: Its binding signal (PBM E-score (-0.5 to 0.5)) is 0.49.

Q: How did the binding signal (PBM E-score (-0.5 to 0.5)) [10] turn out when “ATGAGGTA (double strand) [8-mer ATGAGGTA]” was run?
A: The binding signal (PBM E-score (-0.5 to 0.5)) was 0.484.
